Measurements taken from article PMC5074588.

Target: tubulins (tubulin dimers; paclitaxel-stabilized microtubules)
Assay: co-sedimentation; different concentrations of the protein added to paclitaxel-stabilized microtubules (prepolymerized from 8 uM tubulins in Fig 5A, 5 uM in S7 Fig) in PEMT buffer (1 mM MgCl2, 1 mM EGTA, 100 mM PIPES, 20 uM taxol, pH 6.9); 25 C 30 min; 100,000g 30 min; SDS-PAGE, Coomassie

tubulins (tubulin dimers; paclitaxel-stabilized microtubules), sequence (P02550 whole entry, chain 1 of 2): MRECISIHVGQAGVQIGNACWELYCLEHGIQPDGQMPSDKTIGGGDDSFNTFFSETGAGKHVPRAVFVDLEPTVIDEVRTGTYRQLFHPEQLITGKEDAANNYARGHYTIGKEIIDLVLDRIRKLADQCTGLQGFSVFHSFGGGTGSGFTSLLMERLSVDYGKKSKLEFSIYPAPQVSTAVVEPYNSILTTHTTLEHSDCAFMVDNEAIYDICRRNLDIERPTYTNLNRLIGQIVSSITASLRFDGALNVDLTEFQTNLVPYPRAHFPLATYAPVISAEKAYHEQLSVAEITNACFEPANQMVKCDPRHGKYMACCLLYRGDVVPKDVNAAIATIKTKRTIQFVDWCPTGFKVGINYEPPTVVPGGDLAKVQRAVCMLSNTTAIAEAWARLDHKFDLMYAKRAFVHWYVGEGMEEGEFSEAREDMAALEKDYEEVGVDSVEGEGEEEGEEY
tubulins (tubulin dimers; paclitaxel-stabilized microtubules), sequence (P02554 whole entry, chain 2 of 2, further chain): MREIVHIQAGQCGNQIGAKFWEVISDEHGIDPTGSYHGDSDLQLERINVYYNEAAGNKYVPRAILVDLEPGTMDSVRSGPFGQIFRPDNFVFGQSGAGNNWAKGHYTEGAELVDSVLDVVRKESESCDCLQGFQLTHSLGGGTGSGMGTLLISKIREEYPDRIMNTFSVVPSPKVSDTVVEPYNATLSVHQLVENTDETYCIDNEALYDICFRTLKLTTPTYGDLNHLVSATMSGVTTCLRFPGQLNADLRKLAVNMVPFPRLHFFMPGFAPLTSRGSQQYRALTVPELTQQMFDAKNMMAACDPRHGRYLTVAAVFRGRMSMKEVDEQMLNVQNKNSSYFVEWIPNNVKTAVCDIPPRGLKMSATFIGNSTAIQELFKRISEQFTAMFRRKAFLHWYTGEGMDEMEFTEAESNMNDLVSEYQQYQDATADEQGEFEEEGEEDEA

“His-AUG8 (AUGMIN subunit 8) (natural protein)” was tested, and the stoichiometry N (M His-AUG8 per mole of tubulin dimers) was 0.22.
